Experimental findings from patent publication US20220251159A1 are described below.

The target of this assay is fluorescently labeled WTp53DBD (MST assay) (UniProt P04637). The experiment in a line: MST; FIG. 3D; myristoylated.

In general, Kd refers to the free concentration of one partner at which half of the binding sites on the other are occupied at equilibrium, for simple one-to-one binding.

Chain of fluorescently labeled WTp53DBD (MST assay) (P04637 94-312): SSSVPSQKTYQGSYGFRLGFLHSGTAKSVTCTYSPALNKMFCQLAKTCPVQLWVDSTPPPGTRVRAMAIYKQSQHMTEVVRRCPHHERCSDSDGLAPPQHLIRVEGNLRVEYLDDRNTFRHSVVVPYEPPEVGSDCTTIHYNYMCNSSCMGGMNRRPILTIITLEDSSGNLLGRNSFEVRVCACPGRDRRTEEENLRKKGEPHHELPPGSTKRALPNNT

Regarding pCAP-402 myr-HSTPHPD, the Kd was determined as 30 µM.
